Test [1] is described as follows: Heparin binding assay (salt elution from heparin-Sepharose/agarose). To be noted: for NaCl concentration of elution from heparin-Sepharose/agarose: increasing salt concentrations.
The next test concerns platelets. Briefly: Platelet adhesion assay. The test is classed as cell-based, human. To be noted: for adhesion of unactivated platelets: PGl2 100 nM, coating 25 μg/ml; for adhesion of activated platelets: thrombin, U46619 or ADP. The method, then: Microtiter wells were coated with purified recombinant Fisp12/mCTGF or Cyr61, and the adhesion of isolated platelets to these proteins was detected with ^125I-mAb15, an anti-β3 monoclonal antibody (Frelinger et al., J. Biol. Chem 265:6346-6352 [1990]). Platelets were obtained from venous blood drawn from healthy donors and collected into acid-citrate-dextrose (ACD). Washed platelets were prepared by diffenential centrifugation as described (Kinlough-Rathbone et al. Thromb. Haemostas 2:291-308 [1997]), and finally resuspended in HEPES-Tyrode's buffer (5 mM HEPES, pH 7.35, 1 mM MgCl2, 1 mM CaCl2, 135 mM NaCl, 2.7 mM KCl, 11.9 mM NaHCO3, 1 mg/ml dextrose and 3.5 mg/ml BSA). The platelet concentration was adjusted to […].
Microtiter wells (Immulon 2 removawell strips, Dynex Technologies, Inc.) were coated with Cyr61, Fisp12/mCTGF, or fibrinogen (25 μg/ml, 50 μl/well) incubated overnight at 22° C., and then blocked with 3% BSA at 37° C. for 2 hours. Washed platelets were added to the wells (100 μl/well) in the presence and absence of platelet agonists and incubated at 37° C. for 30 minutes. The wells were washed with HEPES-Tyrode's buffer and adherent platelets were detected with ^125I-mAb15, an anti-β3 monoclonal antibody. Exposure to the labeled antibody ([…], 50 μl/well) proceeded for 1 hour at 22° C. After extensive washing with HEPES-Tyrode's buffer, bound radioactivity was determined by γ-counting. In inhibition studies, washed platelets were pre-incubated with blocking peptides or antibodies at 37° C. for 15 minutes prior to addition to microtiter wells.
The anti-β3 antibody was radioiodinated with carrier-free Na^125I (Amersham Corp.) using the IODO-BEADS iodination reagent (Pierce) to a specific activity of approximately 2 μCi/μg. […] As controls, BSA- and fibrinogen-coated (KabiVitrum Inc.) wells were also used. Initially, the adhesion of unactivated versus activated platelets to immobilized Fisp12/mCTGF and Cyr61 was compared. To ensure that plateltes were not activated during the washing procedures, PGl2 (100 nM), which inhibits activation by raising platelet cAMP levels, was added to the platelet suspensions. […]

The target of a further test is T1, αllbβ3 (Homo sapiens, UniProt P05106+P08514).
T1 construct: from tissue; host or cells: outdated human platelets
In words: Solid-phase binding assay with purified integrin. The settings on record: for Kd: RGD-affinity purified αllbβ3, immobilized protein, read-out: half-saturation of activated αllbβ3 binding. The method, then: In these experiments, activated and unactivated αllbβ3 were purified from platelet lysates. Activated αllbβ3 was purified by RGD affinity chromatography, as described (Knezevic et al., J. Biol. Chem. 271:16416-16421 [1996]). Briefly, outdated human platelets were isolated by differential centrifugation and solubilized in lysis buffer (10 mM HEPES, pH 7.4, 0.15 M NaCl, containing 1 mM CaCl2, 1 mM MgCl2 100 μM leupeptin, 1 mM phenylmethylsulfonyl fluoride, 10 mM-ethylmaleimide, and 50 mM octylglucoside). The octylglucoside extract was incubated with 1 ml GRGDSPK-coupled Sepharose 4B overnight at 4° C. After washing with 15 ml column buffer (same as lysis buffer except it contained 25 mM octylglucoside), bound αllbβ3 was eluted with 1.7 mM H12 (2 ml) in column buffer. The H12 eluate was applied to a Sephacryl S-300 High Resolution column (1.5×95 cm), and αllbβ3 was eluted with 10 mM HEPES, pH 7.4, 0.15 M NaCl, 1 mM CaCl2, 1 mM MgCl2 and 25 mM octylglucoside.
Unactivated αllbβ3 was isolated by the method of Fitzgerald et al., Anal. Biochem. 151:169-177 (1985), with slight modifications. The flow-through fraction of the GRGDSPK-Sepharose column was applied to a concanavalin A-Sepharose 4B column (1×20 cm). Unbound proteins were washed with 50 ml column buffer, and bound αllbβ3 was then eluted with 100 mM mannose dissolved in column buffer. Fractions containing αllbβ3 were further purified on a Sephacryl S-300 High Resolution column
To perform the solid-phase binding assay, purified αllbβ3 was added to wells coated with either Cyr61 or Fisp12 (mCTGF) in the presence or absence of inhibitors and binding was allowed to proceed for 3 hours at 37° C. Unbound receptor was removed and the wells wee washed twice with HEPES-Tyrode's Buffer. The binding of purified αllbβ3 to Cyr61 or Fisp12/mCTGF immobilized onto microtiter wells was detected with ^125I-mAb15.

B1: Fisp12: Cysteine-rich murine protein, SEQ ID NO:6, mouse ortholog of CTGF (protein, listed as Mus musculus)
chain: MLASVAGPISLALVLLALCTRPATGQDCSAQCQCAAEAAPHCPAGVSLVLDGCGCCRVCAKQLGELCTERDPCDPHKGLFCDFGSPANRKIGVCTAKDGAPCVFGGSVYRSGESFQSSCKYQCTCLDGAVGCVPLCSMDVRLPSPDCPFPRRVKLPGKCCKEWVCDEPKDRTAVGPALAAYRLEDTFGPDPTMMRANCLVQTTEWSACSKTCGMGISTRVTNDNTFCRLEKQSRLCMVRPCEADLEENIKKGKKCIRTPKIAKPVKFELSGCTSVKTYRAKFCGVCTDGRCCTPHRTTTLPVEFKCPDGEIMKKNMMFIKTCACHYNCPGDNDIFESLYYRKMYGDMA
Take B1: the “NaCl concentration of elution from heparin-Sepharose/agarose” value in test [1] is 0.2 to 0.6 M NaCl. In addition, in test [1] (metabolically labeled cell lysates), the “peak elution from heparin agarose” value is given as 0.4 M NaCl. Further, in the test on platelets, the “adhesion of unactivated platelets” value is given as “failed to adhere” and the “adhesion of activated platelets” value is listed as “dramatic increase in platelte adhesion”. For the same molecule, in the test with αllbβ3, the “binding of activated versus unactivated αllbβ3” value is “greater binding of activated versus unactivated” and the Kd turned out to be 15 nM.

B2: Cyr61: Cysteine-rich ECM signaling protein; murine sequence SEQ ID NO:2, recombinant from Baculovirus-infected Sf9 cells (protein, listed as Mus musculus)
chain: MSSSTFRTLAVAVTLLHLTRLALSTCPAACHCPLEAPKCAPGVGLVRDGCGCCKVCAKQLNEDCSKTQPCDHTKGLECNFGASSTALKGICRAQSEGRPCEYNSRIYQNGESFQPNCKHQCTCIDGAVGCIPLCPQELSLPNLGCPNPRLVKVSGQCCEEWVCDEDSIKDSLDDQDDLLGLDASEVELTRNNELIAIGKGSSLKRLPVFGTEPRVLFNPLHAHGQKCIVQTTSWSQCSKSCGTGISTRVTNDNPECRLVKETRICEVRPCGQPVYSSLKKGKKCSKTKKSPEPVRFTYAGCSSVKKYRPKYCGSCVDGRCCTPLQTRTVKMRFRCEDGEMFSKNVMMIQSCKCNYNCPHPNEASFRLYSLFNDIHKFRD
On to B2, for which, in test [1], the “NaCl concentration of elution from heparin-Sepharose/agarose” value is recorded as 0.8-1.0 M NaCl. Further, in the test on platelets, the “adhesion of unactivated platelets” value is “failed to adhere” and the “adhesion of activated platelets” value is on record as “dramatic increase in platelte adhesion”. Besides, in the test with αllbβ3, the “binding of activated versus unactivated αllbβ3” value is “greater binding of activated versus unactivated” and the Kd worked out at 25 nM.

Values taken from patent US7521540B2, “CYR61 compositions and methods” (Munin Corporation, priority 1996, dated 2009).
